Data from US20120308570A1, “METHODS FOR TREATING DISEASES” (priority 2009, published 2012).

T1: full-length iNOS protein (endogenous, from LPS/IFNγ-treated mouse bone marrow-derived macrophages) (mouse, UniProt P29477 1-1144)
T1 construct: Not purified: present in macrophage lysates; Detected by Western blot with anti-iNOS antibody; also called NOS2; inducible nitric oxide synthase
T1 sequence: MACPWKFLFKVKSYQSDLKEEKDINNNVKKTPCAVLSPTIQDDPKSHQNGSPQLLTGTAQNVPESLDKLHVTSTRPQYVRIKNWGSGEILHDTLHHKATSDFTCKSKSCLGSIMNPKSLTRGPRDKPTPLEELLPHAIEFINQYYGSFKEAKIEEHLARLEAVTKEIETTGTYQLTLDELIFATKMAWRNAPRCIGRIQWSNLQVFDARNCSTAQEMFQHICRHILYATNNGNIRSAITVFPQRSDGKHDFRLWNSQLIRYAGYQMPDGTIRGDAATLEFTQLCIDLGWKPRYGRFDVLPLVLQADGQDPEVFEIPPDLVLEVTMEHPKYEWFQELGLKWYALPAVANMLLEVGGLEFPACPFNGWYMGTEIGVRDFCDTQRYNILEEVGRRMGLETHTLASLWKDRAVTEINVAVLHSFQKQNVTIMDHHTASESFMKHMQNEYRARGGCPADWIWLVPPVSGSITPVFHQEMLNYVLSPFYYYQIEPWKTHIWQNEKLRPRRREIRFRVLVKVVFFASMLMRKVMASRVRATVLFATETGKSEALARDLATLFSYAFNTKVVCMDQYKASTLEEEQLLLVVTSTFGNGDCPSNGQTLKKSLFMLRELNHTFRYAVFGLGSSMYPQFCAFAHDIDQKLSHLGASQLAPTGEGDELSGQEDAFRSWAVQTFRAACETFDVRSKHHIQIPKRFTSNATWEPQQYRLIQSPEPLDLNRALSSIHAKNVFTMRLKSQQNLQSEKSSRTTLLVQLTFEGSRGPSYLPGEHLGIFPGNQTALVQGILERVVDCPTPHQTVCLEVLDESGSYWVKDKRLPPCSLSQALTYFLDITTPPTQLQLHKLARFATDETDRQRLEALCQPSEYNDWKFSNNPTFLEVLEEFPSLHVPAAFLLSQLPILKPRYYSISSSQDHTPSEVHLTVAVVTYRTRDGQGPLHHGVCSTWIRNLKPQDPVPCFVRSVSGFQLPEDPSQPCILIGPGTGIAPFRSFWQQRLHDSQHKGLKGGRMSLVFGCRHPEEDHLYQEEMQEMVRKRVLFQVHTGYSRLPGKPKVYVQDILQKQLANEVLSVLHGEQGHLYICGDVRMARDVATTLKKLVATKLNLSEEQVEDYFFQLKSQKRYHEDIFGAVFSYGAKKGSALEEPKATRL

T2: SSB-2ΔSB (recombinant murine SSB-2 SPRY domain, residues 12-224) (mouse, UniProt O88838 12-224)
T2 construct: 226 residues in total; expressed as GST fusion in E. coli, GST cleaved off with thrombin; 15N-labelled for NMR; coupled to NHS-Sepharose for pull-downs; also called SPSB2
T2 sequence: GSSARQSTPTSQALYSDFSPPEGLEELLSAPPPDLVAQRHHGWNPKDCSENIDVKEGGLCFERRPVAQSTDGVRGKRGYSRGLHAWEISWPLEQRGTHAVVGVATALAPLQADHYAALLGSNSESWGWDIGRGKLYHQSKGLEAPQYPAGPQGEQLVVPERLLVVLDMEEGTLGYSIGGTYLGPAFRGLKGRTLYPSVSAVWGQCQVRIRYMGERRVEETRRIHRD


How the values were obtained:
[1] = biological target: T1, full-length iNOS protein (endogenous, …); assay: anti-Flag immunoprecipitation from transgenic BMDM, anti-iNOS re-blot
Procedure: Cells were incubated with IFNγ and LPS as described, and lysed in KALB lysis buffer (Nicholson et al., 1995) containing protease inhibitors (Complete Cocktail tablets, Roche), 1 mM phenylmethylsulphonyl fluoride, 1 mM Na₃VO₄ and 1 mM NaF. Proteins were immunoprecipitated using anti-Flag antibody conjugated to Sepharose (M2; EASTMAN KODAK). Proteins were separated by sodium dodecyl sulphatepolyacrylamide gel electrophoresis (SDS-PAGE) under reducing conditions and electrophoretically transferred to Biotrace PVDF membranes (Pall Corp. Ann Arbor, Mich.). Membranes were blocked overnight in 10% w/v skim milk and incubated with primary antibody for 2 h. Antibody binding was visualized with either peroxidase-conjugated goat anti-rat immunoglobulin (Southern Biotech) or peroxidase-conjugated sheep anti-rabbit immunoglobulin (Chemicon, Melbourne, Australia), and the enhanced chemiluminescence (ECL) system (Amersham, Little Chalfont, Buckinghamshire, UK). To re-blot, the membrane was first stripped of antibodies in 0.1 M glycine, pH 2.9.
As genetic deletion of SSB-2 appeared to result in elevation of iNOS levels, it was tested whether artificially increasing SSB levels could correspondingly down-regulate iNOS expression. BMDM were generated from mice expressing either a Flag-tagged Ssb-1 or Ssb-2 transgene under a constitutive promoter (Ssb-1^{T/+}, Ssb-2^{T/+}) and from wild-type littermate control mice. […] Macrophage expression of the SSB transgenes was confirmed by anti-FLAG immunoprecipitation and Western blot (FIGS. 9C and 10C, top panels).

[2] = biological target: T2, SSB-2ΔSB (recombinant murine SSB-2 SPRY …); assay: ITC, 25 C, peptide injected into SSB-2ΔSB
Procedure: FIG. 3. Typical ITC raw data and titration curves for SSB-2 and iNOS peptide interactions. Titration curves were fitted using the “One Set of Sites” model in MicroCal Origin.
Wild-type and mutant iNOS peptides (Table 2), corresponding to Lys19-Thr31 of mouse iNOS, were synthesized by GL Biochem (Shanghai) Ltd. These peptides were N-terminal acetylated and C-terminal amidated. All ITC measurements were carried out at 25° C. using a Microcal omega VP-ITC (Microcal Inc., Northampton, Mass.). SSB-2ΔSB was dialysed against buffer (100 mM TrisHCl, 150 mM NaCl, pH 8.0), and wild-type and mutant iNOS N-terminal peptides were prepared in the same buffer from 5 mM stocks. Solutions of 5 to 10 μM SSB-2ΔSB in the cell were titrated by injection of a total of 290 μL of 50-200 μM of iNOS peptides. Data analysis was performed using the evaluation software, MicroCal Origin version 5.0. All curves were fitted using the nonlinear least-squares fitter and the “One Set of Sites” model.

[3] = biological target: T1, full-length iNOS protein (endogenous, …); assay: anti-Flag co-immunoprecipitation, anti-iNOS Western blot
Excerpt: FIG. 6. Interaction between iNOS and SSB-1, -2, and -4 and SSB-2 residues affecting 10 iNOS binding. (A) iNOS interacts preferentially with SSB-2 and SSB-4. 293T cells were transiently transfected with vector alone or cDNA encoding either Flag-tagged SSB-1, SSB-2, SSB-3 or SSB-4. Cells were lysed, and mixed with BMDM lysates from cells induced to express iNOS. Flag-tagged proteins were immunoprecipitated using anti-Flag antibodies (M2-beads) and separated by SDSPAGE. Co-immunoprecipitation of iNOS was detected by Western blot with anti-iNOS antibodies (upper panel). Membranes were stripped and reprobed with rat anti-Flag antibodies (middle panel). Comparative expression of Flag-tagged proteins in 293T lysates is shown by Western blot (lower panel). (B) SSB-2 residues affecting iNOS binding. Residues in the SSB-2 SPRY domain were mutated to Ala or Phe (for Y120) based on SSB-2 structure and sequence conservation. 293T cells 20 were transiently transfected with cDNA encoding Flag-tagged wild-type or mutant SSB-2. Cells were lysed, and mixed with BMDM lysates from cells induced to express iNOS. Flag-tagged proteins were immunoprecipitated using anti-Flag antibodies and separated by SDS-PAGE. Coimmunoprecipitation of iNOS was detected by Western blot with anti-iNOS antibodies.

| Binder | Kd [2] | also measured |
| --- | --- | --- |
| Flag-tagged SSB-1 transgene product (a.a. 2-274), in BMDM of Ssb-1 T/+ mice (other, The printed end of the range may exceed the entry's length; also called full-length SSB-1) DYKDDDDKGQKVTGGIKTVDMRDPTYRPLKQELQGLDYCKPTRLDLLLDMPPVSYDVQLLHSWNNNDRSLNVFVKEDDKLIFHRHPVAQSTDAIRGKVGYTRGLHVWQITWAMRQRGTHAVVGVATADAPLHSVGYTTLVGNNHESWGWDLGRNRLYHDGKNQPSKTYPAFLEPDETFIVPDSFLVALDMDDGTLSFIVDGQYMGVAFRGLKGKKLYPVVSAVWGHCEIRMRYLNGLDPEPLPLMDLCRRSVRLALGKERLGAIPALPLPASLKAYLLYQ | – | binding result [1]: binds |
| Ac-KEAKDINNNVKKT-NH2 [iNOS N-terminal peptide II, Ac-KEAKDINNNVKKT-NH2] | 14 nM | – |
| Ac-KEEKAINNNVKKT-NH2 [iNOS N-terminal peptide V, Ac-KEEKAINNNVKKT-NH2] | 21600 nM | – |
| Ac-KEEADINNNVKKT-NH2 [iNOS N-terminal peptide III, Ac-KEEADINNNVKKT-NH2] | 127 nM | – |
| Ac-KEEKDIQNNVKKT-NH2 [iNOS N-terminal peptide VIII, Ac-KEEKDIQNNVKKT-NH2] | 40500 nM | – |
| Ac-KEEKDINNNAKAT-NH2 [iNOS N-terminal peptide XIV, Ac-KEEKDINNNAKAT-NH2] | 180 nM | – |
| Ac-KEEKDIANNVKKT-NH2 [iNOS N-terminal peptide VII, Ac-KEEKDIANNVKKT-NH2] | 17200 nM | – |
| Ac-KEEKDINANVKKT-NH2 [iNOS N-terminal peptide IX, Ac-KEEKDINANVKKT-NH2] | 826 nM | – |
| Ac-KEEKDANNNVKKT-NH2 [iNOS N-terminal peptide VI, Ac-KEEKDANNNVKKT-NH2] | 23.5 nM | – |
| Ac-KEAADINNNVKKT-NH2 [iNOS N-terminal peptide IV, Ac-KEAADINNNVKKT-NH2] | 65.4 nM | – |
| Flag-tagged SSB-2ΔSB transgene product (a.a. 2-224, without the SOCS box), in BMDM of Ssb-2ΔSB T/+ mice (other, also called SOCS box-deleted SSB-2) DYKDDDDKGQTALARGSSSTPTSQALYSDFSPPEGLEELLSAPPPDLVAQRHHGWNPKDCSENIDVKEGGLCFERRPVAQSTDGVRGKRGYSRGLHAWEISWPLEQRGTHAVVGVATALAPLQADHYAALLGSNSESWGWDIGRGKLYHQSKGLEAPQYPAGPQGEQLVVPERLLVVLDMEEGTLGYSIGGTYLGPAFRGLKGRTLYPSVSAVWGQCQVRIRYMGERRVEE | – | binding result [1]: binds |
| Flag-tagged SSB-1ΔSB transgene product (a.a. 2-233, without the SOCS box), in BMDM of Ssb-1ΔSB T/+ mice (other, also called SOCS box-deleted SSB-1) DYKDDDDKGQKVTGGIKTVDMRDPTYRPLKQELQGLDYCKPTRLDLLLDMPPVSYDVQLLHSWNNNDRSLNVFVKEDDKLIFHRHPVAQSTDAIRGKVGYTRGLHVWQITWAMRQRGTHAVVGVATADAPLHSVGYTTLVGNNHESWGWDLGRNRLYHDGKNQPSKTYPAFLEPDETFIVPDSFLVALDMDDGTLSFIVDGQYMGVAFRGLKGKKLYPVVSAVWGHCEIRMRYLNGLDPE | – | binding result [1]: binds |
| Flag-tagged SSB-2 transgene product (a.a. 3-265), in BMDM of Ssb-2 T/+ mice (other, The printed end of the range may exceed the entry's length; also called full-length SSB-2) DYKDDDDKQTALARGSSSTPTSQALYSDFSPPEGLEELLSAPPPDLVAQRHHGWNPKDCSENIDVKEGGLCFERRPVAQSTDGVRGKRGYSRGLHAWEISWPLEQRGTHAVVGVATALAPLQADHYAALLGSNSESWGWDIGRGKLYHQSKGLEAPQYPAGPQGEQLVVPERLLVVLDMEEGTLGYSIGGTYLGPAFRGLKGRTLYPSVSAVWGQCQVRIRYMGERRVEEPQSLLHLSRLCVRHALGDTRLGQISTLPLPPAMKRYLLYK | – | binding result [1]: binds |
| Flag-tagged SSB-2 mutant R100/G101 to alanine (other) DYKDDDDKMGQTALARGSSSTPTSQALYSDFSPPEGLEELLSAPPPDLVAQRHHGWNPKDCSENIDVKEGGLCFERRPVAQSTDGVRGKRGYSRGLHAWEISWPLEQAATHAVVGVATALAPLQADHYAALLGSNSESWGWDIGRGKLYHQSKGLEAPQYPAGPQGEQLVVPERLLVVLDMEEGTLGYSIGGTYLGPAFRGLKGRTLYPSVSAVWGQCQVRIRYMGERRVEEPQSLLHLSRLCVRHALGDTRLGQISTLPLPPAMKRYLLYK | – | binding result [3]: no binding |
| Flag-tagged SSB-2 mutant V206 to alanine (other) DYKDDDDKMGQTALARGSSSTPTSQALYSDFSPPEGLEELLSAPPPDLVAQRHHGWNPKDCSENIDVKEGGLCFERRPVAQSTDGVRGKRGYSRGLHAWEISWPLEQRGTHAVVGVATALAPLQADHYAALLGSNSESWGWDIGRGKLYHQSKGLEAPQYPAGPQGEQLVVPERLLVVLDMEEGTLGYSIGGTYLGPAFRGLKGRTLYPSVSAAWGQCQVRIRYMGERRVEEPQSLLHLSRLCVRHALGDTRLGQISTLPLPPAMKRYLLYK | – | binding result [3]: no binding |
| Flag-tagged SSB-2 mutant Y120 to alanine (other) DYKDDDDKMGQTALARGSSSTPTSQALYSDFSPPEGLEELLSAPPPDLVAQRHHGWNPKDCSENIDVKEGGLCFERRPVAQSTDGVRGKRGYSRGLHAWEISWPLEQRGTHAVVGVATALAPLQADHAAALLGSNSESWGWDIGRGKLYHQSKGLEAPQYPAGPQGEQLVVPERLLVVLDMEEGTLGYSIGGTYLGPAFRGLKGRTLYPSVSAVWGQCQVRIRYMGERRVEEPQSLLHLSRLCVRHALGDTRLGQISTLPLPPAMKRYLLYK | – | binding result [3]: no binding |
